The DeepSol protein solubility set

Experiment: soluble on expression in E. coli; label from the status in PepcDB or PDB records

Sequence	soluble on expression in E. coli
MQVSKRKSLCKICGNPAFGNHFGVLSCRACAAFFRRTNVDGETFCPIGNCKIDKHGKFYCKKCRLRICLEAGMDANKFQHDRDLISTSTSESSDSSGSFSFSQRSKVPKSMANFLGRPAFILSCEPDKASKVKTIVDVTFLINQAFDIFGNVDRKRFSSNSNLGRMTKKFEDLQNEKSSNLSTIKVLGLKESMIFWEQDFLRTARWLSHFDEFQELPLSIRMQILKVAWILWGRLDKLVKTANERKNQQLNQNFYMIGKDVGIDIGNFEVDVSWCTNYSKEQLAYYLDCHHDEPFNIIVDAISDLKPSDMELNFMLLELCLAHAGKQHQGDVLMFTDRLLEVVSNELHDYYQSEQISNYSSRITKMMKINNLIRRNLFERLERQAVAKVFNIISVHFSHPDMFCNAGF	not soluble
MKGGLLVDDEFIHGEERSLTVRKTSLFFAGDGFTVYDCKGSLVFRVDSYGGPNTRDTDEVVLMDAHGRCLLTLRRKRPSLRRRWEGYLGERSDGQKPIFGVRRSSIIGRNSVTVEVYGDYQCSEYLIEGSFGARNCTVVEAETRRKVAEIRRKVDASTNVMLGKDVFSLNVKPGFDGAFAMGLVLVLDQIYGDDLLEVGEEQVHPSAEDL	not soluble
MGSDKIHHHHHHVSDLLSQDEIDALLHGVDDVDDDDDLDAASQDARSYDFSSQDRIVRGRMPTLEIVNERFARHLRISMFNMMRRAAEVSINGVQMLKFGEYVHTLFVPTSLNMVRFSPLKGTALITMEARLVFILVDNFFGGDGRFHAKIEGREFTPTERRIVQLLLKIIFEDYKDAWAPVMDVEFDYLDSEVNPAMANIVSPTEVVVINSFHIEVDGGGGDFHITMPYSMIEPIRELLDAGVQSDKQDTDMRWSQALHDEIMDVKVGFDACVVEHELTLKDVMNFKAGDIIPVELPEYIMMKIEDLPTYRCKMGRSRDNLALKIYEKIPRPETVKTELQLVTRKGKARDISEL	not soluble
MGSDKIHHHHHHMATVISMINLKGGVGKTTLTVAMAEFMAAEYGLKVLVVDLDPQTNATVALINELEWRKRNIRGQTLLNIFLDHLSKYQVFSLEEAIVHNVSNVNGGIEGLDLLPSSIDLIEVHDEFLQAIPSLPINPLHLLDDVLRAALSAYDIVLIDCPPDLGLICQNGLMISDYYIIPTIPDILSTYGIPQIINRIGRLQRENSISIQPLGLVISKYRQQSEIHKNQANLLKIHAPKAGYRQVFNTFIPEGNLAAMVMDYTLHFNSLREKYNYSKYYQIYKALTEEVLSCVQ	not soluble
MSEELLQKFLTSIEQEDGIAEIGKKKKNKSAARRDNVKTILHAASKGQVQLSAEESYIVQKPSTSKGSDYIDDRLASQGFSLIDQARSFKPKDLKKRNLKYMKFQEGRRIDKKKGRILVQAHMQTKQDLKSLRKEKKAIIGVKEPRRLLPGQKKKQKDKSVFSDADFAQVAHVAKRINSMADHSFL	not soluble
SRRMKANARERNRMHGLNAALDNLRKVVPCYSKTQKLSKIETLRLAKNYIWALSEILRSG	soluble
SNAMENQKMQEPLVYRRILLTVDEDDNTSSERAFRYATTLAHDYDVPLGICSVLESEDINIFDSLTPSKIQAKRKHVEDVVAEYVQLAEQRGVNQVEPLVYEGGDVDDVILEQVIPEFKPDLLVTGADTEFPHSKIAGAIGPRLARKAPISVIVVR	soluble
MAAPSAGSWSTFQHKELMAADRGRRILGVCGMHPHHQETLKKNRVVLAKQLLLSELLEHLLEKDIITLEMRELIQAKVGSFSQNVELLNLLPKRGPQAFDAFCEALRETKQGHLEDMLLTTLSGLQHVLPPLSCDYDLSLPFPVCESCPLYKKLRLSTDTVEHSLDNKDGPVCLQVKPCTPEFYQTHFQLAYRLQSRPRGLALVLSNVHFTGEKELEFRSGGDVDHSTLVTLFKLLGYDVHVLCDQTAQEMQEKLQNFAQLPAHRVTDSCIVALLSHGVEGAIYGVDGKLLQLQEVFQLFDNANCPSLQNKPKMFFIQACRGDETDRGVDQQDGKNHAGSPGCEESDAGKEKLPKMRLPTRSDMICGYACLKGTAAMRNTKRGSWYIEALAQVFSERACDMHVADMLVKVNALIKDREGYAPGTEFHRCKEMSEYCSTLCRHLYLFPGHPPT	not soluble
MIQAVLFDLDGTLADTALDLGGALNTLLARHGLPAKSMDEIRTQASHGAAGLIKLGAGITPDHPDYARWRTEYLDEYDSRYAQDTTLF	not soluble
MERNKLARQIIDTCLEMTRLGLNQGTAGNVSVRYQDGMLITPTGIPYEKLTESHIVFIDGNGKHEEGKLPSSEWRFHMAAYQSRPDANAVVHNHAVHCTAVSILNRSIPAIHYMIAAAGGNSIPCAPYATFGTRELSEHVALALKNRKATLLQHHGLIACEVNLEKALWLAHEVEVLAQLYLTTLAITDPVPVLSDEEIAVVLEKFKTYGLAIEE	soluble
GAMDMLGTSFNNFGISLSHKRYFSGKVDEIIRCTMGKRIVKISSTKINTSILSSVSEQIGENITDWKNDEKKVYVSRVVNQCIDKFCAEHSRKIGDNLRKQIFKQVEKDYRISLDINAAQSSINHLVSGSSYFKKKMDELCEGMNRSVKNDTTSNVANLISDQFFEKNVQYIDLKKLRGNMSDYITNLESPF	soluble
MLTPPPDSKISTTDKSLDKLSAPLDMLKQMNESTMEQTKLDELRKKMSLQAEILNKAKADNDMFFRLLIELMSLKLQGELFKEQLSKISKESGYDSAQSALIQATNSEGQSPLQYALQKQDFSTAKYFLDNGAKAGPIEKAVFEIALDSKAAKEFGFPPLPPEKEKLHPVKNFGLVLGIKTTSVDGTPSQFGHIAPTYQLMTDSVSHFAKSHPGNKNFQEIANAFQFSNEASAFKFSTPQRNPEAGNDLARRIQGGELTTIPVSCKGHAMGLSYVPDGPGSKSGYLVYTNRGLGAKSSEHGTHIFRIEDSSKITPEFINNMTSGHSNGASHDEIMSQIKAAAGNKEPIHHIKQKGQKNDNCTIANSKSNIEGILLCQKAREVGGFDKLTESDMDSVKKEYKEFTKHMRVEKVNELAKALKENPQDPDLNNLTKEYLKQHPNADPKLKQTLETALKQASESSMTLSQPGKTI	not soluble
MGCAGSTQSQADGSVKKIRKPKPWKHTQPITKAELMKLREEFWDTAPHYGGRKEIWDALRAAAEADISLAQAIVDSAGVIVQNTDLTVCYDERGAKYELPKYVLSEPTNLEEEN	not soluble
MDGNDLIRLEMKRLGPMAVEKGDLLLLSGDNNADASMWDPNSNGPKSYQSQVAGLRLAAGGVFHVLTLKSAGEATLSIHFVFPSRTDPGRQVQMWVRRVGRSFQGAGSGYVLMNMRHVVNVQGKTIHTQTGNTVCLDDITDDCYLDREGRFVFVKSPVGSPPSMIAVGYTNSDGTQDLAELILTESACPEMLHVFSTLEFPD	soluble
MRGSHHHHHHPEYDYIRDGNAIYERSFAIIRAEADLSRFSEEEADLAVRMVHACGSVEATRQFVFSPDFVSSARAALKAGAPILCDAEMVAHGVTRARLPAGNEVICTLRDPRTPALAAEIGNTRSAAALKLWSERLAGSVVAIGNAPTALFFLLEMLRDGAPKPAAILGMPVGFVGAAESKDALAENSYGVPFAIVRGRLGGSAMTAAALNSLARPGL	soluble
MRIWIDADACPKAAKELVCKFALKRKLEVWMVAGQPQVKPPFACVRLVVVESGMDAADDYLVEQAEPGDLAICSDVPLADRLIKKQVAALDPRGREFDARNMGDKLAMRNLMADLRDQGQMGGGQAPYGERDRQAFANALDRLLTRLQREADLRASQPHR	not soluble
SNAMTKPMIQIALDQTNLTDAVAVASNVASYVDVIEVGTILAFAEGMKAVSTLRHNHPNHILVCDMKTTDGGAILSRMAFEAGADWITVSAAAHIATIAACKKVADELNGEIQIEIYGNWTMQDAKAWVDLGITQAIYHRSRDAELAGIGWTTDDLDKMRQLSALGIELSITGGIVPEDIYLFEGIKTKTFIAGRALAGAEGQQTAAALREQIDRFWP	soluble
GMELPVVVQQALGDNAPGVSFRSVSQIDTGHLLRMVLLSDDQGNLQAICRRNDMLDLEALNKRLGRDLRMMQRREQVRVRQKAGLQELPALPSLTGWPTVVDRRVDELEAVALELGEQDLGLMMPAEDFRQLTAKAARHDFAVDTANISVNLDNHAADRDQLHSAIKRFTGLRIQQRLEDTLELPPLPETAQRIIHLRVNPNAVMGDLVDVVESDPSLAAQVVSWASSSFYAAAGRVHSVHDAVSRVLGFDLVMNLAMGLALGRALKHPQDHPDGYVDYWQQAIWQAQSAGILASMMPRGQRPLFGLAYLAGLLHNFGHLVLAQVFPPHFKLVCRSLEVSPHIDSSVIEHYLLGITREQIAAQLMENWGMPDEVTLAIRYQKNPAYDGPHNVYARLLWLGRQLLTERGVALGAGESATQAVYDELGLDRELVQEQFDELVRRKDSIMAMAGMMSQGG	soluble
MGSDKIHHHHHHMSFEVTFDGMRYSCVNCAYCCSCKNWRVFLSYFDMMRLKGYENYIEKSNSNYEHVLALRNGKCGLIENNLCRIQLEKSYDTKPAMCRLFPFSFMVKWNGDLLLILKHYCGGVQVGKCSKKTIKHAIECCEELYHDQLSEFSLDFAERSDKTSLNEKTEICWEERAELGKYFFKIKKFDSFSEKYSEIFSEDISDSIEKLKSKNSCFDEKTQKLREKETLRYMYELNKREHFRKMSFKKELDNLINVGIIIDDYKDLLKGEGAVDSKLLLN	not soluble
MGTKREKDSLAFLLNSGARLLNNAFERRISEAGLGLTPGEARALLTVAVVDGSKQSDIAARLGIEPMTICAYLDKLQSLDLIERQQDPQDRRSKRIVLTKNSTDMLEAVRQEIDELVRHATRGLNEDEVALFRSFLQTLRDNLQPEQPGQSC	soluble
MSRSDAGRPAPTGADADRRTMVLESAMATFARFGYRKTSMEEVARAAHISRPGLYFLFSSKESLFRAAVTQALHRDITAVERALADGDRPLPERLVEAFDHWAGRYVGPLTRDVATVIEANPGILGEVVEVLPRRFEELVTDAITVATGREGAVRIAQTMISASTGLKHQVGSRESYLERLTVAVGLLLR	not soluble
MGLKDQAVTWRRYFHQFPELSDKEFKTTQKIKDILTEHHIRILDLPLATGLVAEVGQGLSCIAVRADIDALPIQELVEQDFKSENEGVMHACGHDIHMASILATAVKLKEIEGTLTGRVKFIFQSAEELGHGAFKIIETHALKDVQAVLGFHNDPSRSVGTFAIKTGAITSAVDRFEFHIKGVGGHAAKPEQCNDPVIVLAQLINSIQSIVSRNLSAFDEAVVTIGQISCGNTWNVIADHAYVQGTVRSFDPVVRKLVETRLQDIADGLAQAYNMKINLNYTHLPGAVMNDEALTHKAIAVAQHVGYKVEMMEQPLTIGEDFSGYSQHFPSVFALIGSHSEYDLHHPQYKPDERILEKVPEYFVEFVKRLLHE	not soluble
MSLEKVDFIKEDLIFSLLEKGKITDRNEIREILAKARECKGISLGEVAKLLYLEDEELLEELYDVAKYIKNKIYGKRVVLFAPLYTSNECTNNCLYCGFRHDNKELHRKTLSLEEIVEEAKAIERQGHKRLLLICGEDPRKTNVKHFTDAMEAIYKSTDIRRINVEAAPMTVEDYRELKKAGIGTYVIFQETYHRETYRIMHPVGKKANYDWRITAIDRAFEGGIDDVGVGALFGLYDYRFEVLGLLMHCMHFEEKYGVGPHTISVPRLRPALGAPLKEIPYKVTDKDFKKIVAIFRIAVPYTGIILSTRERAEFRDELLSVGVSQISAGSKTNPGGYQEDDDHADQFEISDNRSLPKVMETICQQGYIPSFCTACYRRCRTGEHFMEYAKAGDIHEFCQPNAILTFKENLMDYADEPLRKMGEEVILKALEEIEDEKMKTLTIAKLEEIEKGKRDIYFEGHHHHHH	soluble
MKRMHNPAHPGEVLREYLGELTVTNAAAKLGVSRVALSRILNGTNGISADMALRLEDALGTSAEMWAAMQFKYDLWVASQQPRPKITRLHV	not soluble
